Patent EP1841452B1

Target: mouse TNFR1 on L929 cells (mouse)
Test: cell-based or functional assay

Substance	ND50, modified L929 cytotoxicity assay without TNF-α (agonism) [pM]
anti-TNFR1 antibody AF-425-PB (R&D Systems)	100
anti-TNFR1 antibody MAB430 (R&D Systems)	10000
